For this data set, the target named is SARS-CoV-2 N-CTD (nucleocapsid C-terminal domain) (SARS-CoV-2, UniProt P0DTC9 247-364). The data set is described as follows: BLI; BLI and EMSA: 25 mM sodium phosphate, 50 mM NaCl, pH 6.0; EMSA 25 C, 30 min, 10 uM RNA, 20% native PAGE. The following applies: protein: recombinant; biotinylated for BLI; 15N-labelled for NMR; chain copies: 2; label: none.

AUAUGGAAGAGCCCUA (ssRNA) [15-nt SARS-CoV-2 genome-derived RNA]: the Kd is about 10.1 µM.

(Values after publication PMC13107021, “Structural basis for suramin binding to the C-terminal domain of the SARS-CoV-2 nucleocapsid protein”.)
